From paper PMC3539977, “Plant Coilin: Structural Characteristics and RNA-Binding Properties” (PLoS ONE, 2013)

Columns and labels:
[1] = system: IDD-212-350 (Arabidopsis thaliana); experiment: EMSA; conditions: apparent; EMSA: 20 mM Tris-HCl pH 7.5, 1 mM DTT, 3 mM MgCl2, 50 mM NaCl, on ice 15 min; 0.1 ug RNA, 2% Tris-acetate agarose gel
[2] = system: IDD (Arabidopsis thaliana); experiment: EMSA; conditions: apparent; EMSA: 20 mM Tris-HCl pH 7.5, 1 mM DTT, 3 mM MgCl2, 50 mM NaCl, on ice 15 min; 0.1 ug RNA, 2% Tris-acetate agarose gel
[3] = system: NOD (Arabidopsis thaliana); experiment: EMSA; conditions: apparent; EMSA: 20 mM Tris-HCl pH 7.5, 1 mM DTT, 3 mM MgCl2, 50 mM NaCl, on ice 15 min; 0.1 ug RNA, 2% Tris-acetate agarose gel
[4] = system: Co-86-608 (Arabidopsis thaliana); experiment: EMSA; conditions: apparent; RNA taken as U1 snRNA; EMSA: 20 mM Tris-HCl pH 7.5, 1 mM DTT, 3 mM MgCl2, 50 mM NaCl, on ice 15 min; 0.1 ug RNA, 2% Tris-acetate agarose gel
[5] = system: IDD-212-350-NLS2 (Arabidopsis thaliana); experiment: EMSA; conditions: apparent; EMSA: 20 mM Tris-HCl pH 7.5, 1 mM DTT, 3 mM MgCl2, 50 mM NaCl, on ice 15 min; 0.1 ug RNA, 2% Tris-acetate agarose gel
[6] = system: IDD-118-212 (Arabidopsis thaliana); experiment: EMSA; conditions: apparent; EMSA: 20 mM Tris-HCl pH 7.5, 1 mM DTT, 3 mM MgCl2, 50 mM NaCl, on ice 15 min; 0.1 ug RNA, 2% Tris-acetate agarose gel
[7] = system: NOD-RK1 (Arabidopsis thaliana); experiment: EMSA; conditions: apparent; EMSA: 20 mM Tris-HCl pH 7.5, 1 mM DTT, 3 mM MgCl2, 50 mM NaCl, on ice 15 min; 0.1 ug RNA, 2% Tris-acetate agarose gel
[8] = target: the molecule itself; experiment: dynamic light scattering; protein at 0.05 mg/ml in 1 mM phosphate buffer pH 7.5, Zetasizer Nano ZS; free protein, and with U1 snRNA at a protein:RNA molar ratio of 5:1

U1 snRNA was tested, and the Kd [1] was 60 nM, the Kd [2] was 40 nM and the Kd [3] was 760 nM. For the same molecule, the Kd [4] was 40 nM, the Kd [5] was 480 nM and the Kd [6] was 1420 nM. For the same molecule, the Kd [7] was 2250 nM.

B1: Arabidopsis thaliana coilin (Atcoilin), wild type (natural protein, UniProt Q8RWK8 1-608, looked up)
chain: MEEEKVRVRLVFEDRRILSKYQKKQGLTRSWVVLNRKCHRTISEFSDHIFHTFSLCEACPHGLSLSMEGFVLPPFESSCVLKDKDIVCVKKKKESLLEIVGEDSDENVYNAIEVEERPQIRPGEMLLANEEFQKETGGYESESEEDELEEEAEEFVPEKKASKKRKTSSKNQSTKRKKCKLDTTEESPDERENTAVVSNVVKKKKKKKSLDVQSANNDEQNNDSTKPMTKSKRSSQQEESKEHNDLCQLSAETKKTPSRSARRKKAKRQWLREKTKLEKEELLQTQLVVAPSQKPVITIDHQATKEKHCETLENQQAEEVSDGFGDEVVPVEVRPGHIRFKPLAGTDEASLDSEPLVENVLWNGNMTKKKGQKWGTEKSGFSKRYAQDFNEDATTQPAEAETLANCPIDYEQLVAYTGSVKKGDVIAYRLIELTSSWTPEVSSFRVGKISYYDPDSKMVTLMPVQEFPIEKKTEEDDDFCMQPDTSLYKEDGSLEIEFSALLDVRSVKTSSSDSAEVAKSALPEPDQSAKKPKLSANKELQTPAKENGEVSPWEELSEALSAKKAALSQANNGWNKKGSSSGGSWSYKALRGSAMGPVMNYLRSQKEI
notes: coilin of Arabidopsis thaliana, a 608-amino acid protein (NM_101173.4; GI:42562030); Cloned into the PQE30 vector; forms oligomers larger than a decamer in solution by DLS; also called wt coilin; wt Atcoilin; source: E. coli JM109, purified under denaturing conditions (Ni-NTA agarose), renatured by dialysis
With B1 the “stoichiometry N” value [8] was over 10.

B2: Atcoilin N-terminal ordered domain (NOD), residues 1-117 (domain or fragment, Arabidopsis thaliana, UniProt Q8RWK8 1-117, looked up)
chain: MEEEKVRVRLVFEDRRILSKYQKKQGLTRSWVVLNRKCHRTISEFSDHIFHTFSLCEACPHGLSLSMEGFVLPPFESSCVLKDKDIVCVKKKKESLLEIVGEDSDENVYNAIEVEER
notes: coilin of Arabidopsis thaliana (NM_101173.4; GI:42562030), NOD, 1-117 aa residues; also called N-terminal domain; source: E. coli JM109, purified under denaturing conditions (Ni-NTA agarose), renatured by dialysis
B2: binds [8].
